Several values for one entry are separate records, joined by “and”; a condition that tells them apart may be missing. Equal entries are not always repeated. Blank lines part the entries; values can stand above or below the binder they belong to. No end group written: not given here.
B2: talin-1 head domain (THD1) (domain or fragment, UniProt P26039 1-405, looked up)
chain: MVALSLKISIGNVVKTMQFEPSTMVYDACRMIRERIPEALAGPPNDFGLFLSDDDPKKGIWLEAGKALDYYMLRNGDTMEYRKKQRPLKIRMLDGTVKTIMVDDSKTVTDMLMTICARIGITNHDEYSLVRELMEEKKDEGTGTLRKDKTLLRDEKKMEKLKQKLHTDDELNWLDHGRTLREQGVEEHETLLLRRKFFYSDQNVDSRDPVQLNLLYVQARDDILNGSHPVSFDKACEFAGFQCQIQFGPHNEQKHKAGFLDLKDFLPKEYVKQKGERKIFQAHKNCGQMSEIEAKVRYVKLARSLKTYGVSFFLVKEKMKGKNKLVPRLLGITKECVMRVDEKTKEVIQEWSLTNIKRWAASPKSFTLDFGDYQDGYYSVQTTEGEQIAQLIAGYIDIILKKKKS
notes: talin-1 (TLN1) head domain (THD), residues 1-405; murine TLN1 cDNA is named only for the cell lines; also called WT; source: E. coli (DE3) Rosetta 2, purified (IMAC, SEC); not shown: His10-SUMO, N-terminal, cleaved

Assays:
Conditions in all cases: both partners purified
[1] = target: T1, kindlin-2 (KIND2) (UniProt Q8CIB5 1-680); experiment: MST; apparent; KIND2 titrated to 488–β3-CT Y772A in the presence of 500 µM THD1; MST buffer
T1 construct: kindlin-2 (KIND2), recombinant; with the F1 loop and the PH domain (unlike ΔKIND2); source: E. coli Rosetta, purified (IMAC, SEC); not shown: His10-SUMO, N-terminal, cleaved
T1 sequence (looked up): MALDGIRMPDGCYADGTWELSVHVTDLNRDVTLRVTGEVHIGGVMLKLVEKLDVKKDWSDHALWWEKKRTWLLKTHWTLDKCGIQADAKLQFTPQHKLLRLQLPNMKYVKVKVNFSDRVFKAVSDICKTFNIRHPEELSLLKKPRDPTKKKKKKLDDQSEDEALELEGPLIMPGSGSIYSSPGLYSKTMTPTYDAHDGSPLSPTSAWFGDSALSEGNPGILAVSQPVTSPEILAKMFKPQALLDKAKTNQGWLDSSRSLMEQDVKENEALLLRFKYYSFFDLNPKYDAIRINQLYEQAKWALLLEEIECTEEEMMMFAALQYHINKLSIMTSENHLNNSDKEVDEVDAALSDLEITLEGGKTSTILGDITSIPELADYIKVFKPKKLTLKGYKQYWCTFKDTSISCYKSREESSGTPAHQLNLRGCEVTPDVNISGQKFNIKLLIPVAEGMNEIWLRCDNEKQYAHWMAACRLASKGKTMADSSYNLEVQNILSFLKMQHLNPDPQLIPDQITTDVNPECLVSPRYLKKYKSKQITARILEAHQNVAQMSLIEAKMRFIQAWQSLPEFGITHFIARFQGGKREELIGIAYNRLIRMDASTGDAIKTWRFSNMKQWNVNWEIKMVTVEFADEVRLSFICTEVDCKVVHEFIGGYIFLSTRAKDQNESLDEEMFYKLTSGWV

[2] = target: T1, kindlin-2 (KIND2); experiment: MST; unlabelled protein titrated to 50-200 nM ATTO 488-labelled β-CT peptide, no third protein; 20 mM Tris pH 7.5, 200 mM NaCl, 1 mM TCEP, 0.05% Tween-20; Kd of individual titrations (in S0002 mean and sd, n = 2)
[3] = target: T2, biotinylated integrin β1 transmembrane and cytoplasmic tail polypeptide (β1-TM–CT) in nanodiscs (UniProt P09055 726-798, biotin (biotin-maleimide)); experiment: flow cytometry-based reporter-displacement assay (FC-RDA) on beads; biotinylated TM–CT in PIP2-containing nanodiscs on streptavidin beads; reporter 647–KIND2-Y13A, unlabelled competitor titrated; IC50 of individual experiments
T2 construct: integrin β1 TM and CT, residues 726-798; embedded in MSP2N2 nanodiscs with 10% PIP2 or PIP3 and 90% DMPC, on average one TM–CT per nanodisc; held on streptavidin beads; also called b1; source: E. coli BL21 (DE3) Rosetta 2, inclusion bodies, purified (IMAC, cation exchange)

[4] = target: T2, biotinylated integrin β1 transmembrane …; experiment: flow cytometry-based reporter-displacement assay (FC-RDA) on beads; biotinylated TM–CT in 10% PIP2/90% DMPC nanodiscs on streptavidin beads; reporter 50 nM 647–KIND2, unlabelled competitor titrated; 20 mM Tris pH 7.5, 200 mM NaCl, room temperature; IC50 of individual experiments; charged lipids contribute to the binding
[5] = target: T3, biotinylated integrin β3 transmembrane and cytoplasmic tail polypeptide (β3-TM–CT) in nanodiscs (UniProt O54890 715-787, biotin (biotin-maleimide)); experiment: flow cytometry-based reporter-displacement assay (FC-RDA) on beads; biotinylated TM–CT in 10% PIP3/90% DMPC nanodiscs on streptavidin beads; reporter 100 nM 565–THD1, unlabelled competitor titrated; 20 mM Tris pH 7.5, 200 mM NaCl, room temperature; IC50 of individual experiments; charged lipids contribute to the binding
T3 construct: integrin β3 TM and CT, residues 715-787; embedded in MSP2N2 nanodiscs with 10% PIP2 or PIP3 and 90% DMPC; held on streptavidin beads; also called b3; source: E. coli BL21 (DE3) Rosetta 2, inclusion bodies, purified (IMAC, cation exchange)
T3 sequence (looked up): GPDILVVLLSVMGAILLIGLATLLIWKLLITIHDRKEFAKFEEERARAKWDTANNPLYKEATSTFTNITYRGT

[6] = target: T2, biotinylated integrin β1 transmembrane …; experiment: flow cytometry-based reporter-displacement assay (FC-RDA) on beads; biotinylated TM–CT in 10% PIP2/90% DMPC nanodiscs on streptavidin beads; reporter 100 nM 565–THD1, unlabelled competitor titrated; 20 mM Tris pH 7.5, 200 mM NaCl, room temperature; IC50 of individual experiments; charged lipids contribute to the binding
[7] = target: B2; experiment: MST; apparent; THD1 titrated to 488–β1-CT or 488–β3-CT in the presence of 300–400 µM β-CT-binding-impaired KIND2 Q614A,W615A (QW/AA); MST buffer
[8] = target: B2; experiment: MST; apparent; THD1 titrated to 488–β1-CT or 488–β3-CT in the presence of 500–1,100 µM KIND2-F0; MST buffer
[9] = target: B2; experiment: MST; unlabelled protein titrated to 50-200 nM ATTO 488-labelled β-CT peptide, no third protein; 20 mM Tris pH 7.5, 200 mM NaCl, 1 mM TCEP, 0.05% Tween-20; Kd of individual titrations (in S0002 mean and sd, n = 2)
[10] = target: B2; experiment: as above; remark: listed apart in the source
[11] = target: B2; experiment: MST; apparent; THD1 titrated to 488–β1-CT or THD2 to 488–β3-CT in the presence of 30 µM KIND2; MST buffer

- Kd [1]: 17.9 µM and 15.3 µM and 23.3 µM and 13.4 µM
- Kd [2]: 20.3 µM and 13.8 µM and 12.5 µM
B1: ATTO 488-labeled talin-binding-impaired β3-CT Y772A (peptide, UniProt O54890 741-787, looked up)
peptide: {ATTO 488}-KLLITIHDRKEFAKFEEERARAKWDTANNPLAKEATSTFTNITYRGT
notes: integrin β3 cytoplasmic tail (β3-CT), Y772A; source: synthetic peptide (MPIB Core Facility)

Binder: B2
- IC50 [3]: 0.321 µM and 0.39 µM and 0.506 µM and 0.206 µM
- IC50 [4]: 0.249 µM and 0.192 µM and 0.087 µM
- IC50 [5]: 0.053 µM and 0.07 µM and 0.127 µM
- IC50 [6]: 0.049 µM and 0.091 µM and 0.089 µM and 0.062 µM

- Kd [7]: 148 µM and 212 µM and 195 µM
- Kd [8]: 173 µM and 137 µM and 177 µM
- Kd [9]: 152 µM
- Kd [10]: 128 µM and 152 µM and 141 µM
- Kd [11]: 159 µM and 173 µM and 127 µM
B3: ATTO 488-labeled integrin β1 cytoplasmic tail (488–β1-CT) (peptide, UniProt P09055-1 758-798, looked up)
peptide: {ATTO 488}-HDRREFAKFEKEKMNAKWDTGENPIYKSAVTTVVNPKYEGK
notes: integrin β1A cytoplasmic tail (β1-CT), residues 758-798; the limits 758-798 are stated for the recombinant β1-CT; also called β1A-CT; source: synthetic peptide (MPIB Core Facility)

Source: paper PMC10716038, “Talin and kindlin use integrin tail allostery and direct binding to activate integrins” (Nature Structural & Molecular Biology, 2023)
